Measured values from the supplement of paper PMC5998384.

Tests used:
[1] = test system: HeLa Kyoto; assay: solubility in G1/S (NP-40 vs SDS abundance) (log2 ratio); higher = more soluble; settings: cell cycle stage: G1/S
[2] = test system: HeLa Kyoto; assay: melting temperature (median over replicates), in situ; higher = more thermally stable
[3] = test system: HeLa Kyoto; assay: solubility change mitosis vs G1/S (difference of NP-40 vs SDS log2 ratios) (log2 ratio difference); higher = more soluble in mitosis
[4] = test system: HeLa Kyoto; assay: thermal stability score vs G1/S (z-score of summed log2 fold changes over temperatures); higher = more thermally stable than in G1/S
[5] = cell cycle stage: early G1 (4.5 h after nocodazole release)
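Wherever melting temperature (median over replicates), in situ is given: HeLa Kyoto cells synchronized by double thymidine or nocodazole block, proteins quantified by TMT10plex mass spectrometry, three independent biological replicates.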
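Wherever solubility change mitosis vs G1/S (difference of NP-40 vs SDS log2 ratios) is given: synchronized HeLa Kyoto cells (double thymidine block for G1/S, nocodazole release for mitosis), protein amounts in NP-40 versus SDS lysates quantified by mass spectrometry, three biological replicates.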
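Wherever solubility in G1/S (NP-40 vs SDS abundance) is given: HeLa Kyoto cells arrested at G1/S by double thymidine block, proteins quantified by TMT10plex mass spectrometry in mild NP-40 versus SDS extracts, three biological replicates.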
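Wherever thermal stability score vs G1/S (z-score of summed log2 fold changes over temperatures) is given: synchronized HeLa Kyoto cells, proteins quantified by TMT10plex mass spectrometry, three biological replicates, mitosis taken 0.5 h after nocodazole release, G1/S directly after double thymidine block.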

Chain of ZNF207 (chain, as listed by the source): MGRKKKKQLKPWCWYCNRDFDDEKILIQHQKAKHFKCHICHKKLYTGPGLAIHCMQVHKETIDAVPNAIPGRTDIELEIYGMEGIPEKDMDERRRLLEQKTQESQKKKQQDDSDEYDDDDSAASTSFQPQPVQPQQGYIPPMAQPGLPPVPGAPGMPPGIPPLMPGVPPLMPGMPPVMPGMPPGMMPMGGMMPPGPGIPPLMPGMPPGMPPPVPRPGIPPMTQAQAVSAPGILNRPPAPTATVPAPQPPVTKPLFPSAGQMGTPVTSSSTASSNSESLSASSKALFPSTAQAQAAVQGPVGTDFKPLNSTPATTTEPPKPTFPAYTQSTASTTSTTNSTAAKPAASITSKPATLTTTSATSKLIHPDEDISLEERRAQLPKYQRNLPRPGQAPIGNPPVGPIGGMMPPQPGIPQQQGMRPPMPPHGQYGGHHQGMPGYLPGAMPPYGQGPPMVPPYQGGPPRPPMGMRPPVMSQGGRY

Substance	solubility in G1/S (log2) [1]	melting temperature ([2]; cell cycle stage: G1/S) [°C]	melting temperature ([2]; cell cycle stage: mitosis) [°C]	solubility change mitosis (log2) [3]	thermal stability score [4, 5]	thermal stability score ([4]; cell cycle stage: mitosis)
METVQLRNPPRRQLKKLDEDSLTKQPEEVFDVLEKLGEGSYGSVYKAIHKETGQIVAIKQVPVESDLQEIIKEISIMQQCDSPHVVKYYGSYFKNTDLWIVMEYCGAGSVSDIIRLRNKTLTEDEIATILQSTLKGLEYLHFMRKIHRDIKAGNILLNTEGHAKLADFGVAGQLTDTMAKRNTVIGTPFWMAPEVIQEIGYNCVADIWSLGITAIEMAEGKPPYADIHPMRAIFMIPTNPPPTFRKPELWSDNFTDFVKQCLVKSPEQRATATQLLQHPFVRSAKGVSILRDLINEAMDVKLKRQESQQREVDQDDEENSEEDEMDSGTMVRAVGDEMGTVRVASTMTDGANTMIEHDDTLPSQLGTMVINAEDEEEEGTMKRRDETMQPAKPSFLEYFEQKEKENQINSFGKSVPGPLKNSSDWKIPQDGDYEFLKSWTVEDLQKRLLALDPMMEQEIEEIRQKYQSKRQPILDAIEAKKRRQQNF [STK4]	0.283	51.8	51.5	-0.0655	0.936	0.0765
MAAAEPAVLALPNSGAGGAGAPSGTVPVLFCFSVFARPSSVPHGAGYELLIQKFLSLYGDQIDMHRKFVVQLFAEEWGQYVDLPKGFAVSERCKVRLVPLQIQLTTLGNLTPSSTVFFCCDMQERFRPAIKYFGDIISVGQRLLQGARILGIPVIVTEQYPKGLGSTVQEIDLTGVKLVLPKTKFSMVLPEVEAALAEIPGVRSVVLFGVETHVCIQQTALELVGRGVEVHIVADATSSRSMMDRMFALERLARTGIIVTTSEAVLLQLVADKDHPKFKEIQNLIKASAPESGLLSKV [ISOC1]	0.237	55.3	55.4	-0.11	-1.52	-0.91
USP34	-0.314	49.5	50.2	-0.0816	0.493	1.73
MAGGMKVAVSPAVGPGPWGSGVGGGGTVRLLLILSGCLVYGTAETDVNVVMLQESQVCEKRASQQFCYTNVLIPKWHDIWTRIQIRVNSSRLVRVTQVENEEKLKELEQFSIWNFFSSFLKEKLNDTYVNVGLYSTKTCLKVEIIEKDTKYSVIVIRRFDPKLFLVFLLGLMLFFCGDLLSRSQIFYYSTGMTVGIVASLLIIIFILSKFMPKKSPIYVILVGGWSFSLYLIQLVFKNLQEIWRCYWQYLLSYVLTVGFMSFAVCYKYGPLENERSINLLTWTLQLMGLCFMYSGIQIPHIALAIIIIALCTKNLEHPIQWLYITCRKVCKGAEKPVPPRLLTEEEYRIQGEVETRKALEELREFCNSPDCSAWKTVSRIQSPKRFADFVEGSSHLTPNEVSVHEQEYGLGSIIAQDEIYEEASSEEEDSYSRCPAITQNNFLT [NEMP1]	0.0297	53.8	54.5	0.0939	1.73	6.13
ZNF207	0.0156	55.8	55.4	0.36	-5.35	-6.05
MWIPVVGLPRRLRLSALAGAGRFCILGSEAATRKHLPARNHCGLSDSSPQLWPEPDFRNPPRKASKASLDFKRYVTDRRLAETLAQIYLGKPSRPPHLLLECNPGPGILTQALLEAGAKVVALESDKTFIPHLESLGKNLDGKLRVIHCDFFKLDPRSGGVIKPPAMSSRGLFKNLGIEAVPWTADIPLKVVGMFPSRGEKRALWKLAYDLYSCTSIYKFGRIEVNMFIGEKEFQKLMADPGNPDLYHVLSVIWQLACEIKVLHMEPWSSFDIYTRKGPLENPKRRELLDQLQQKLYLIQMIPRQNLFTKNLTPMNYNIFFHLLKHCFGRRSATVIDHLRSLTPLDARDILMQIGKQEDEKVVNMHPQDFKTLFETIERSKDCAYKWLYDETLEDR [TFB2M]	0.194	50.5	50.7	-0.038	0.218	1
BAZ1A	-0.551	45.9	49	0.356	1.48	3.95
MSRLKRIAGQDLRAGFKAGGRDCGTSVPQGLLKAARKSGQLNLSGRNLSEVPQCVWRINVDIPEEANQNLSFGATERWWEQTDLTKLIISNNKLQSLTDDLRLLPALTVLDIHDNQLTSLPSAIRELENLQKLNVSHNKLKILPEEITNLRNLKCLYLQHNELTCISEGFEQLSNLEDLDLSNNHLTTVPASFSSLSSLVRLNLSSNELKSLPAEINRMKRLKHLDCNSNLLETIPPELAGMESLELLYLRRNKLRFLPEFPSCSLLKELHVGENQIEMLEAEHLKHLNSILVLDLRDNKLKSVPDEIILLRSLERLDLSNNDISSLPYSLGNLHLKFLALEGNPLRTIRREIISKGTQEVLKYLRSKIKDDGPSQSESATETAMTLPSESRVNIHAIITLKILDYSDKQATLIPDEVFDAVKSNIVTSINFSKNQLCEIPKRMVELKEMVSDVDLSFNKLSFISLELCVLQKLTFLDLRNNFLNSLPEEMESLVRLQTINLSFNRFKMLPEVLYRIFTLETILISNNQVGSVDPQKMKMMENLTTLDLQNNDLLQIPPELGNCVNLRTLLLDGNPFRVPRAAILMKGTAAILEYLRDRIPT [LRRC40]	0.322	49.2	49.2	-0.167	0.285	1.77
MSSFGAGKTKEVIFSVEDGSVKMFLRGRPVPMMIPDELAPTYSLDTRSELPSCRLKLEWVYGYRGRDCRANLYLLPTGEIVYFVASVAVLYSVEEQRQRHYLGHNDDIKCLAIHPDMVTIATGQVAGTTKEGKPLPPHVRIWDSVSLSTLHVLGLGVFDRAVCCVGFSKSNGGNLLCAVDESNDHMLSVWDWAKETKVVDVKCSNEAVLVATFHPTDPTVLITCGKSHIYFWTLEGGSLSKRQGLFEKHEKPKYVLCVTFLEGGDVVTGDSGGNLYVWGKGGNRITQAVLGAHDGGVFGLCALRDGTLVSGGGRDRRVVLWGSDYSKLQEVEVPEDFGPVRTVAEGHGDTLYVGTTRNSILQGSVHTGFSLLVQGHVEELWGLATHPSRAQFVTCGQDKLVHLWSSDSHQPLWSRIIEDPARSAGFHPSGSVLAVGTVTGRWLLLDTETHDLVAIHTDGNEQISVVSFSPDGAYLAVGSHDNLVYVYTVDQGGRKVSRLGKCSGHSSFITHLDWAQDSSCFVTNSGDYEILYWDPATCKQITSADAVRNMEWATATCVLGFGVFGIWSEGADGTDINAVARSHDGKLLASADDFGKVHLFSYPCCQPRALSHKYGGHSSHVTNVAFLWDDSMALTTGGKDTSVLQWRVV [EML2]	-0.16	53.1	53.4	-0.207	-0.964	-1.37
MEPDIIRMYSSSPPPLDNGAEDDDDDEFGEFGGFSEVSPSGVGFVDFDTPDYTRPKEEFVPSNHFMPIHEFSENVDSLTSFKSIKNGNDKDITAELSAPVKGQSDVLLSTTSKEIISSEMLATSIDGMERPGNLNKVVEQRQNVGTLESFSPGDFRTNMNVVHQNKQLESCNGEKPPCLEILTNGFAVLETVNPQGTDDLDNVADSKGRKPLSTHSTEYNLDSVPSPAEEFADFATFSKKERIQLEEIECAVLNDREALTIRENNKINRVNELNSVKEVALGRSLDNKGDTDGEDQVCVSEISIVTNRGFSVEKQGLPTLQQDEFLQSGVQSKAWSLVDSADNSEAIRREQCKTEEKLDLLTSKCAHLCMDSVKTSDDEVGSPKEESRKFTNFQSPNIDPTEENDLDDSLSVKNGDSSNDFVTCNDINEDDFGDFGDFGSASGSTPPFVTGTQDSMSDATFEESSEHFPHFSEPGDDFGEFGDINAVSCQEETILTKSDLKQTSDNLSEECQLARKSSGTGTEPVAKLKNGQEGEIGHFDSVPNIQDDCNGFQDSDDFADFSSAGPSQVVDWNAFEDEQKDSCSWAAFGDQQATESHHRKEAWQSHRTDENIDTPGTPKTHSVPSATSKGAVASGHLQESATSVQTALLNRLERIFEACFPSILVPDAEEEVTSLKHLLETSTLPIKTREALPESGELLDVWTELQDIHDAHGLRYQWGGSHSNKKLLSSLGIDTRNILFTGNKKQPVIVPMYAAGLGMLEPTKEPLKPLSAAEKIASIGQTATMSPDMNTCTSDQFQESLPPVQFDWSSSGLTNPLDASGGSTLLNLDFFGPVDDSSSSSSTTIPGVDPELYELTTSKLEISTSSLKVTDAFARLMSTVEKTSTSTRKPKREEHLSEEAIKVIAGLPDLTFMHAKVLMFPATLTPSTSSQEKADG [AFTPH]	-0.151	52	51.9	-0.029	-0.487	-1.23
MAPQNLSTFCLLLLYLIGAVIAGRDFYKILGVPRSASIKDIKKAYRKLALQLHPDRNPDDPQAQEKFQDLGAAYEVLSDSEKRKQYDTYGEEGLKDGHQSSHGDIFSHFFGDFGFMFGGTPRQQDRNIPRGSDIIVDLEVTLEEVYAGNFVEVVRNKPVARQAPGKRKCNCRQEMRTTQLGPGRFQMTQEVVCDECPNVKLVNEERTLEVEIEPGVRDGMEYPFIGEGEPHVDGEPGDLRFRIKVVKHPIFERRGDDLYTNVTISLVESLVGFEMDITHLDGHKVHISRDKITRPGAKLWKKGEGLPNFDNNNIKGSLIITFDVDFPKEQLTEEAREGIKQLLKQGSVQKVYNGLQGY [DNAJB11]	0.337	54.7	55	-0.0195	3	0.842
